B1: DVD1520 (bispecific antibody, human IgG1, kappa)
heavy: not shown
light: DIQMTQSPSSLSASVGDRVTITCRASQSISNNLNWYQQKPGKAPKLLIYYTSRFHSGVPSRFSGSGSGTDFTFTISSLQPEDIATYYCQQEHTLPYTFGQGTKLEIKRTVAAPDIQMTQSPSSLSASVGDRVTITCRASQGIRIDLGWYQQKPGKAPKRLIYAASTLQSGVPSRFSGSGSGTEFIFTISSLQPEDFASYYCLQHKSYPLTFGGGTKVEIKRTVAAPSVFIFPPSDEQLKSGTASVVCLLNNFYPREAKVQWKVDNALQSGNSQESVTEQDSKDSTYSLSSTLTLSKADYEKHKVYACEVTHQGLSSPVTKSFNRGEC
notes: DVD-Ig; linker set 3; also called DVD1520H; DVD1520L
B2: DVD1502 (bispecific antibody, human IgG1, kappa)
heavy: not shown
light: DIQMTQSPSSLSASVGDRVTITCRASQSISNNLNWYQQKPGKAPKLLIYYTSRFHSGVPSRFSGSGSGTDFTFTISSLQPEDIATYYCQQEHTLPYTFGQGTKLEIKRTVAAPDIVMTQSHKFMSTTVGDRVSITCKASQAVSSAVAWYQQKPGQSPKLLIYWASTRHTGVPDRFTGSGSVTDFTLTIHNLQAEDLALYYCQQHYSTPFTFGSGTKLEIKRTVAAPSVFIFPPSDEQLKSGTASVVCLLNNFYPREAKVQWKVDNALQSGNSQESVTEQDSKDSTYSLSSTLTLSKADYEKHKVYACEVTHQGLSSPVTKSFNRGEC
notes: DVD-Ig; linker set 3; also called DVD1502H; DVD1502L

What was measured:
[1] = target: T1, Recombinant Human TNF-α/TNFSF1A (human, UniProt P01375 77-233); experiment: Biacore SPR
T1 construct: Bought reagent; The same protein name (huTNFα) is used in the L929 neutralization assay; also called huTNFα
T1 sequence (P01375 77-233 limits assumed): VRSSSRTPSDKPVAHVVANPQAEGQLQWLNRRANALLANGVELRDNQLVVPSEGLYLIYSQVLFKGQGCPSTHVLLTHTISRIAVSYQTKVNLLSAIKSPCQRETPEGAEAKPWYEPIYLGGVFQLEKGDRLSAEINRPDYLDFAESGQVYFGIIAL
Protocol: (§1) The BIACORE assay (Biacore, Inc, Piscataway, N.J.) determines the affinity of antibodies or DVD-Ig with kinetic measurements of on-rate and off-rate constants. Binding of antibodies or DVD-Ig to a target antigen (for example, a purified recombinant target antigen) is determined by surface plasmon resonance-based measurements with a Biacore® 1000 or 3000 instrument (Biacore® AB, Uppsala, Sweden) using running HBS-EP (10 mM HEPES [pH 7.4], 150 mM NaCl, 3 mM EDTA, and 0.005% surfactant P20) at 25° C. All chemicals are obtained from Biacore® AB (Uppsala, Sweden) or otherwise from a different source as described in the text. For example, approximately 5000 RU of goat anti-mouse IgG, (Fcγ), fragment specific polyclonal antibody (Pierce Biotechnology Inc, Rockford, Ill.) diluted in 10 mM sodium acetate (pH 4.5) is directly immobilized across a CMS research grade biosensor chip using a standard amine coupling kit according to manufacturer's instructions and procedures at 25 μg/ml. Unreacted moieties on the biosensor surface are blocked with ethanolamine. Modified carboxymethyl dextran surface in flowcell 2 and 4 is used as a reaction surface. Unmodified carboxymethyl dextran without goat anti-mouse IgG in flow cell 1 and 3 is used as the reference surface. For kinetic analysis, rate equations derived from the 1:1 Langmuir binding model are fitted simultaneously to association and dissociation phases of all eight injections (using global fit analysis) with the use of Biaevaluation 4.0.1 software. Purified antibodies or DVD-Ig are diluted in HEPES-buffered saline for capture across goat anti-mouse IgG specific reaction surfaces. Antibodies or DVD-Ig to be captured as a ligand (25 μg/ml) are injected over reaction matrices at a flow rate of 5 μl/min. The association and dissociation rate constants, kₒₙ (M⁻¹s⁻) and koff(s⁻¹) are determined under a continuous flow rate of 25 μl/min. Rate constants are derived by making kinetic binding measurements at different antigen concentrations ranging from 10-200 nM. The equilibrium dissociation constant (M) of the reaction between antibodies or DVD-Igs and the target antigen is then calculated from the kinetic rate constants by the following formula: KD=koff/kₒₙ. Binding is recorded as a function of time and kinetic rate constants are calculated.

[2] = target: T2, Recombinant Human β-NGF (human, UniProt P01138 122-241); experiment: Biacore SPR
T2 construct: Bought reagent; also called huNGF
T2 sequence (P01138 122-241 limits assumed): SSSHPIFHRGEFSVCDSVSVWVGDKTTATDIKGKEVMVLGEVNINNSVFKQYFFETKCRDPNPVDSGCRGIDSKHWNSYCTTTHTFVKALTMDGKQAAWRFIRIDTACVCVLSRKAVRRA
Protocol: as §1

[3] = target: T1, Recombinant Human TNF-α/TNFSF1A; experiment: cell-based or functional assay
[4] = target: T2, Recombinant Human β-NGF; experiment: cell-based or functional assay

| Binder | Kd [1] | koff [1] | kon [1] | Kd [2] | koff [2] | kon [2] | TNFα Neutralization Assay EC50 (L929 cells) [3] | NGF Inhibition Assay EC50 (TF-1 cell proliferation) [4] |
| --- | --- | --- | --- | --- | --- | --- | --- | --- |
| B1 | 0.0038 nM | 4.4e-06 s⁻¹ | 1.1e+06 M⁻¹ s⁻¹ | 0.0034 nM | 9.3e-06 s⁻¹ | 2.7e+06 M⁻¹ s⁻¹ | 7.21 nM | 0.025 nM |
| B2 | 0.3 nM | 5.5e-05 s⁻¹ | 180000 M⁻¹ s⁻¹ | < 0.0004 nM | < 1e-06 s⁻¹ | 2.5e+06 M⁻¹ s⁻¹ | 0.46 nM | 0.028 nM |

Source: patent publication US20120087858A1 (AbbVie / Abbott, published 2012)
